Legend:
[1] = biological target: Porphyromonas gingivalis dipeptidylpeptidase-7 (DPP-7), purified from strain HG66 (Porphyromonas gingivalis) (UniProt B2RKV3); test: cell-based or functional assay
[2] = biological target: T1, Porphyromonas gingivalis dipeptidylpeptidase-7 (DPP-7), purified from strain HG66 (Porphyromonas gingivalis, UniProt B2RKV3 24-712); test: cell-based or functional assay
T1 sequence: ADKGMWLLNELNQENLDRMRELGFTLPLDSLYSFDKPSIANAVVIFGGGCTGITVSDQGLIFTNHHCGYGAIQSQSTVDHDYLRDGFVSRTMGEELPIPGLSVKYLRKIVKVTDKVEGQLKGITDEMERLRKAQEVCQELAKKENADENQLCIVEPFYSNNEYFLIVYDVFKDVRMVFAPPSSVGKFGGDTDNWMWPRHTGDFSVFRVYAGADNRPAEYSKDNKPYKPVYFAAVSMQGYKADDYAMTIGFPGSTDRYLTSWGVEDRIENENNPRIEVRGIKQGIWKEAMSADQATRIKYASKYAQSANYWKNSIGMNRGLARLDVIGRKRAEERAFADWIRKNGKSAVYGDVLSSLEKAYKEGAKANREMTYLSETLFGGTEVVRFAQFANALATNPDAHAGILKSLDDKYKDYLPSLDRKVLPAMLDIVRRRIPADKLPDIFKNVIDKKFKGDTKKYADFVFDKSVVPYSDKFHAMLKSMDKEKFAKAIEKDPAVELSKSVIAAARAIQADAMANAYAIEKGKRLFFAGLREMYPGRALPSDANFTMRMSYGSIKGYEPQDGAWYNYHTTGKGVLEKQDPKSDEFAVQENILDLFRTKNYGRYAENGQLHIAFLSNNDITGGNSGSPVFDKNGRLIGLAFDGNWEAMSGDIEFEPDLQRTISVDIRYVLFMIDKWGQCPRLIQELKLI

[3] = biological target: T2, Ala-Pro-Val-Arg-Ser-Leu (SEQ ID NO:16)
T2 chain: APVRSL

[4] = biological target: T3, Gln-Lys-Gln-Met-Ser-Asp-Arg-Arg-Glu (SEQ ID NO:17)
T3 chain: QKQMSDRRE

[5] = biological target: T4, Ile-Ala-Arg-Arg-His-Pro-Tyr-Phe-Leu (SEQ ID NO:11)
T4 chain: IARRHPYFL

[6] = biological target: T5, Lys-Ile-Ala-Gly-Tyr-His-Leu-Glu-Leu (SEQ ID NO:12)
T5 chain: KIAGYHLEL

[7] = biological target: T6, Phe-Leu-Arg-Glu-Pro-Val-Ile-Phe-Leu (SEQ ID NO:13)
T6 chain: FLREPVIFL

[8] = biological target: T7, Ser-Pro-Tyr-Ser-Ser-Glu-Thr-Thr (SEQ ID NO:15)
T7 chain: SPYSSETT

[9] = biological target: T8, Trp-Ala-Gly-Gly-Asp-Ala-Ser-Gly-Glu (SEQ ID NO:10)
T8 chain: WAGGDASGE

[10] = biological target: T9, Trp-His-Trp-Leu-Glu-Leu-Lys-Pro-Gly-Glu-Pro-Met-Tyr (SEQ ID NO:14)
T9 chain: WHWLELKPGEPMY

[11] = biological target: carboxymethylated lysosyme

Aprotinin (from UniProt P00974 36-93)
% of residual activity of DPP-7 against H-Ala-Phe-pNA after preincubation with 0.5 mg/ml inhibitor [1]: 128%

RF [Arg-Phe]
% of residual activity of DPP-7 against H-Ala-Phe-pNA after preincubation with 100 mM compound [2]: 69%

B1: Porphyromonas gingivalis dipeptidylpeptidase-7 (DPP-7), purified from strain HG66 (protein)
chain: T1 sequence
Peptides not cleaved (reverse-phase HPLC, mass spectrometry) [3]: Peptides not cleaved
Peptides not cleaved (reverse-phase HPLC, mass spectrometry) [4]: Peptides not cleaved
Peptides cleaved (hydrolysis products separated by reverse-phase HPLC, mass spectrometry) [5]: Ile-Ala-↓-Arg-Arg-His-Pro-Tyr-Phe-Leu
Peptides cleaved (hydrolysis products separated by reverse-phase HPLC, mass spectrometry) [6]: Lys-Ile-↓-Ala-Gly-Tyr-His-Leu-Glu-Leu
Peptides cleaved (hydrolysis products separated by reverse-phase HPLC, mass spectrometry) [7]: Phe-Leu-↓-Arg-Glu-Pro-Val-Ile-Phe-Leu
Peptides not cleaved (reverse-phase HPLC, mass spectrometry) [8]: Peptides not cleaved
Peptides cleaved (hydrolysis products separated by reverse-phase HPLC, mass spectrometry) [9]: Trp-Ala-↓-Gly-Gly-Asp-Ala-Ser-Gly-Glu
Peptides not cleaved (reverse-phase HPLC, mass spectrometry) [10]: Peptides not cleaved
endopeptidase activity (azocazein): did not show any endopeptidase activity
endopeptidase activity [11]: did not show any endopeptidase activity
endopeptidase activity (gelatin): did not show any endopeptidase activity
endopeptidase activity (insulin β chain): did not show any endopeptidase activity
endopeptidase activity (type I collagen): did not show any endopeptidase activity

AG [Ala-Gly]
% of residual activity of DPP-7 against H-Ala-Phe-pNA after preincubation with 100 mM compound [2]: 96%

GA [Gly-Ala]
% of residual activity of DPP-7 against H-Ala-Phe-pNA after preincubation with 100 mM compound [2]: 102%
